{
  "source": "patent US20140087995A1",
  "about": "(published 2014)",
  "binders": {"B1": {"name": "N^ε1-[2-[2-[2-[[(4S)-4-carboxy-4-(19-carboxynonadecanoylamino)butanoyl]amino]ethoxy]ethoxy]acetyl]-[Arg17,Pro21,Pro27,Arg34]-h-amylin (peptide)", "peptide": "K([AEEA-γGlu-C20 diacid])CNTATCATQRLANFLRHSSPNFGAIPSSTNVGRNTY-NH2", "modifications": "disulfide 2-7; N-terminus assumed", "SMILES": "CC[C@H](C)[C@H](NC(=O)[C@H](C)NC(=O)CNC(=O)[C@H](Cc1ccccc1)NC(=O)[C@H](CC(N)=O)NC(=O)[C@@H]1CCCN1C(=O)[C@H](CO)NC(=O)[C@H](CO)NC(=O)[C@H](Cc1c[nH]cn1)NC(=O)[C@H](CCCNC(=N)N)NC(=O)[C@H](CC(C)C)NC(=O)[C@H](Cc1ccccc1)NC(=O)[C@H](CC(N)=O)NC(=O)[C@H](C)NC(=O)[C@H](CC(C)C)NC(=O)[C@H](CCCNC(=N)N)NC(=O)[C@H](CCC(N)=O)NC(=O)[C@@H](NC(=O)[C@H](C)NC(=O)[C@@H]1CSSC[C@H](NC(=O)[C@@H](N)CCCCNC(=O)COCCOCCNC(=O)CC[C@H](NC(=O)CCCCCCCCCCCCCCCCCCC(=O)O)C(=O)O)C(=O)N[C@@H](CC(N)=O)C(=O)N[C@@H]([C@@H](C)O)C(=O)N[C@@H](C)C(=O)N[C@@H]([C@@H](C)O)C(=O)N1)[C@@H](C)O)C(=O)N1CCC[C@H]1C(=O)N[C@@H](CO)C(=O)N[C@@H](CO)C(=O)N[C@H](C(=O)N[C@@H](CC(N)=O)C(=O)N[C@H](C(=O)NCC(=O)N[C@@H](CCCNC(=N)N)C(=O)N[C@@H](CC(N)=O)C(=O)N[C@H](C(=O)N[C@@H](Cc1ccc(O)cc1)C(N)=O)[C@@H](C)O)C(C)C)[C@@H](C)O", "notes": "also called compound 78"}, "B2": {"name": "N^ε1-[2-[2-[2-[[(4S)-4-carboxy-4-(19-carboxynonadecanoylamino)butanoyl]amino]ethoxy]ethoxy]acetyl]-[Arg17,Pro21,Pro27,His34]-h-amylin (peptide)", "peptide": "K([AEEA-γGlu-C20 diacid])CNTATCATQRLANFLRHSSPNFGAIPSSTNVGHNTY-NH2", "modifications": "disulfide 2-7; N-terminus assumed", "SMILES": "CC[C@H](C)[C@H](NC(=O)[C@H](C)NC(=O)CNC(=O)[C@H](Cc1ccccc1)NC(=O)[C@H](CC(N)=O)NC(=O)[C@@H]1CCCN1C(=O)[C@H](CO)NC(=O)[C@H](CO)NC(=O)[C@H](Cc1c[nH]cn1)NC(=O)[C@H](CCCNC(=N)N)NC(=O)[C@H](CC(C)C)NC(=O)[C@H](Cc1ccccc1)NC(=O)[C@H](CC(N)=O)NC(=O)[C@H](C)NC(=O)[C@H](CC(C)C)NC(=O)[C@H](CCCNC(=N)N)NC(=O)[C@H](CCC(N)=O)NC(=O)[C@@H](NC(=O)[C@H](C)NC(=O)[C@@H]1CSSC[C@H](NC(=O)[C@@H](N)CCCCNC(=O)COCCOCCNC(=O)CC[C@H](NC(=O)CCCCCCCCCCCCCCCCCCC(=O)O)C(=O)O)C(=O)N[C@@H](CC(N)=O)C(=O)N[C@@H]([C@@H](C)O)C(=O)N[C@@H](C)C(=O)N[C@@H]([C@@H](C)O)C(=O)N1)[C@@H](C)O)C(=O)N1CCC[C@H]1C(=O)N[C@@H](CO)C(=O)N[C@@H](CO)C(=O)N[C@H](C(=O)N[C@@H](CC(N)=O)C(=O)N[C@H](C(=O)NCC(=O)N[C@@H](Cc1c[nH]cn1)C(=O)N[C@@H](CC(N)=O)C(=O)N[C@H](C(=O)N[C@@H](Cc1ccc(O)cc1)C(N)=O)[C@@H](C)O)C(C)C)[C@@H](C)O", "notes": "also called compound 76"}, "B3": {"name": "N^ε1-[2-[2-[2-[[(4S)-4-carboxy-4-(19-carboxynonadecanoylamino)butanoyl]amino]ethoxy]ethoxy]acetyl]-[His14,Arg17,Pro21,Pro27,Arg34]-h-amylin (peptide)", "peptide": "K([AEEA-γGlu-C20 diacid])CNTATCATQRLAHFLRHSSPNFGAIPSSTNVGRNTY-NH2", "modifications": "disulfide 2-7; N-terminus assumed", "SMILES": "CC[C@H](C)[C@H](NC(=O)[C@H](C)NC(=O)CNC(=O)[C@H](Cc1ccccc1)NC(=O)[C@H](CC(N)=O)NC(=O)[C@@H]1CCCN1C(=O)[C@H](CO)NC(=O)[C@H](CO)NC(=O)[C@H](Cc1c[nH]cn1)NC(=O)[C@H](CCCNC(=N)N)NC(=O)[C@H](CC(C)C)NC(=O)[C@H](Cc1ccccc1)NC(=O)[C@H](Cc1c[nH]cn1)NC(=O)[C@H](C)NC(=O)[C@H](CC(C)C)NC(=O)[C@H](CCCNC(=N)N)NC(=O)[C@H](CCC(N)=O)NC(=O)[C@@H](NC(=O)[C@H](C)NC(=O)[C@@H]1CSSC[C@H](NC(=O)[C@@H](N)CCCCNC(=O)COCCOCCNC(=O)CC[C@H](NC(=O)CCCCCCCCCCCCCCCCCCC(=O)O)C(=O)O)C(=O)N[C@@H](CC(N)=O)C(=O)N[C@@H]([C@@H](C)O)C(=O)N[C@@H](C)C(=O)N[C@@H]([C@@H](C)O)C(=O)N1)[C@@H](C)O)C(=O)N1CCC[C@H]1C(=O)N[C@@H](CO)C(=O)N[C@@H](CO)C(=O)N[C@H](C(=O)N[C@@H](CC(N)=O)C(=O)N[C@H](C(=O)NCC(=O)N[C@@H](CCCNC(=N)N)C(=O)N[C@@H](CC(N)=O)C(=O)N[C@H](C(=O)N[C@@H](Cc1ccc(O)cc1)C(N)=O)[C@@H](C)O)C(C)C)[C@@H](C)O", "notes": "also called compound 84"}, "B4": {"name": "N^ε1-[2-[2-[2-[[(4S)-4-carboxy-4-(19-carboxynonadecanoylamino)butanoyl]amino]ethoxy]ethoxy]acetyl]-[His14,Arg17,Pro21,Pro27,His34]-h-amylin (peptide)", "peptide": "K([AEEA-γGlu-C20 diacid])CNTATCATQRLAHFLRHSSPNFGAIPSSTNVGHNTY-NH2", "modifications": "disulfide 2-7; N-terminus assumed", "SMILES": "CC[C@H](C)[C@H](NC(=O)[C@H](C)NC(=O)CNC(=O)[C@H](Cc1ccccc1)NC(=O)[C@H](CC(N)=O)NC(=O)[C@@H]1CCCN1C(=O)[C@H](CO)NC(=O)[C@H](CO)NC(=O)[C@H](Cc1c[nH]cn1)NC(=O)[C@H](CCCNC(=N)N)NC(=O)[C@H](CC(C)C)NC(=O)[C@H](Cc1ccccc1)NC(=O)[C@H](Cc1c[nH]cn1)NC(=O)[C@H](C)NC(=O)[C@H](CC(C)C)NC(=O)[C@H](CCCNC(=N)N)NC(=O)[C@H](CCC(N)=O)NC(=O)[C@@H](NC(=O)[C@H](C)NC(=O)[C@@H]1CSSC[C@H](NC(=O)[C@@H](N)CCCCNC(=O)COCCOCCNC(=O)CC[C@H](NC(=O)CCCCCCCCCCCCCCCCCCC(=O)O)C(=O)O)C(=O)N[C@@H](CC(N)=O)C(=O)N[C@@H]([C@@H](C)O)C(=O)N[C@@H](C)C(=O)N[C@@H]([C@@H](C)O)C(=O)N1)[C@@H](C)O)C(=O)N1CCC[C@H]1C(=O)N[C@@H](CO)C(=O)N[C@@H](CO)C(=O)N[C@H](C(=O)N[C@@H](CC(N)=O)C(=O)N[C@H](C(=O)NCC(=O)N[C@@H](Cc1c[nH]cn1)C(=O)N[C@@H](CC(N)=O)C(=O)N[C@H](C(=O)N[C@@H](Cc1ccc(O)cc1)C(N)=O)[C@@H](C)O)C(C)C)[C@@H](C)O", "notes": "also called compound 80"}, "B5": {"name": "N^ε1-[2-[2-[2-[[(4S)-4-carboxy-4-(19-carboxynonadecanoylamino)butanoyl]amino]ethoxy]ethoxy]acetyl]-[Thr14,Arg17,Pro21,Pro27,Pro31]-h-amylin (peptide)", "peptide": "K([AEEA-γGlu-C20 diacid])CNTATCATQRLATFLRHSSPNFGAIPSSTPVGSNTY-NH2", "modifications": "disulfide 2-7; N-terminus assumed", "SMILES": "CC[C@H](C)[C@H](NC(=O)[C@H](C)NC(=O)CNC(=O)[C@H](Cc1ccccc1)NC(=O)[C@H](CC(N)=O)NC(=O)[C@@H]1CCCN1C(=O)[C@H](CO)NC(=O)[C@H](CO)NC(=O)[C@H](Cc1c[nH]cn1)NC(=O)[C@H](CCCNC(=N)N)NC(=O)[C@H](CC(C)C)NC(=O)[C@H](Cc1ccccc1)NC(=O)[C@@H](NC(=O)[C@H](C)NC(=O)[C@H](CC(C)C)NC(=O)[C@H](CCCNC(=N)N)NC(=O)[C@H](CCC(N)=O)NC(=O)[C@@H](NC(=O)[C@H](C)NC(=O)[C@@H]1CSSC[C@H](NC(=O)[C@@H](N)CCCCNC(=O)COCCOCCNC(=O)CC[C@H](NC(=O)CCCCCCCCCCCCCCCCCCC(=O)O)C(=O)O)C(=O)N[C@@H](CC(N)=O)C(=O)N[C@@H]([C@@H](C)O)C(=O)N[C@@H](C)C(=O)N[C@@H]([C@@H](C)O)C(=O)N1)[C@@H](C)O)[C@@H](C)O)C(=O)N1CCC[C@H]1C(=O)N[C@@H](CO)C(=O)N[C@@H](CO)C(=O)N[C@H](C(=O)N1CCC[C@H]1C(=O)N[C@H](C(=O)NCC(=O)N[C@@H](CO)C(=O)N[C@@H](CC(N)=O)C(=O)N[C@H](C(=O)N[C@@H](Cc1ccc(O)cc1)C(N)=O)[C@@H](C)O)C(C)C)[C@@H](C)O", "notes": "also called compound 75"}},
  "note": "Numbered stars: 1 amine (or outer) side, 2 acyl side, 3 side chain; on linkers, the order of the positions; unused ones are H or OH. Bridge positions count the residues as written; N and C are the ends. Side chains are listed from the residue outwards. Ends that are not written are not given here. * marks the point of attachment. C20 diacid = O=C(O)CCCCCCCCCCCCCCCCCCC(=O)*; γGlu = O=C(O)[C@H](CCC(=O)[*:2])N[*:1]; AEEA = NCCOCCOCC(=O)O",
  "data": [
    {"molecular_target": "T1, human amylin receptor (amylin 3(a) receptor: human calcitonin receptor with RAMP-3) (human, UniProt P30988 25-474; O60896 24-148)", "T1 construct": "whole, on cells; Assay used cell membranes of the Amylin 3(a)/CRE-luc BHK cells, not intact cells; also called hAmylin-R; hAmylinR", "T1 sequence (looked up) 1": "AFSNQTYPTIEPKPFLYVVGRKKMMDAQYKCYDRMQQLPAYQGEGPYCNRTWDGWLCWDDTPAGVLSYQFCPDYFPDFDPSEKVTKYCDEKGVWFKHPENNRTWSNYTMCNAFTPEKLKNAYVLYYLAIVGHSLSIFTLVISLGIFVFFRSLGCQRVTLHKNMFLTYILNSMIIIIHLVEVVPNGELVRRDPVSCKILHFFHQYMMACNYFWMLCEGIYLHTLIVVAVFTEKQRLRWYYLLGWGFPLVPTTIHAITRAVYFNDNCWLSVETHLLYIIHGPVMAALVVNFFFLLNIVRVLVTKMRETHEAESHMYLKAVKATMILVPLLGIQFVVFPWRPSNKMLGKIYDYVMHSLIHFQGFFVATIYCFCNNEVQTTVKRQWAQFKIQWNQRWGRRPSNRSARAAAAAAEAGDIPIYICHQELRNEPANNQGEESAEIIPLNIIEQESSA", "T1 sequence (looked up) 2": "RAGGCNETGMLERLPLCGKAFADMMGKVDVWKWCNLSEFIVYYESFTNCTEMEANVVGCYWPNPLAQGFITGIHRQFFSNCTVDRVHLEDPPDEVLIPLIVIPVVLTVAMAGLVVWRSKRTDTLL", "test": "SPA competition with 125I-rat amylin on membranes of BHK cells with human calcitonin receptor and RAMP-3 (Assay V)", "procedure,_shortened": "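SPA beads + BHK amylin 3(a)/CRE-luc membranes, 35 ng/μL final; buffer 50 mM Hepes pH 7.4, 1 mM CaCl2, 5 mM MgCl₂, 0.1% OA, 0.02% Tween20. 120 min, 25° C, shaken; scintillation count. IC₅₀ by one-site binding competition fit, taken as receptor affinity.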", "units": {"IC50": "nM"}, "values": [
      {"binder": "B1", "IC50": 0.602},
      {"binder": "B2", "IC50": 0.215},
      {"binder": "B3", "IC50": 0.743},
      {"binder": "B4", "IC50": 0.29},
      {"binder": "B5", "IC50": 0.666}
    ]},
    {"molecular_target": "T2, human calcitonin receptor (human, UniProt P30988 25-474)", "T2 construct": "whole, on cells; Assay used cell membranes, not intact cells; also called hCTR; hCT", "T2 sequence (looked up)": "T1 sequence (looked up) 1", "test": "ratio IC50 hCTR / IC50 hAmylin-R (reference: human amylin receptor), SPA competition assays", "procedure,_shortened": "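Membranes (35 ng/μL final) + SPA beads, 50 mM Hepes pH 7.4 buffer with 1 mM CaCl2, 5 mM MgCl₂, 0.1% OA, 0.02% Tween20; 120 min, 25° C, shaking; centrifuged, counted; IC₅₀ by one-site binding competition.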", "values": [
      {"binder": "B1", "Ratio hCT/hAmylin binding": 60.7},
      {"binder": "B2", "Ratio hCT/hAmylin binding": 80},
      {"binder": "B3", "Ratio hCT/hAmylin binding": 120},
      {"binder": "B4", "Ratio hCT/hAmylin binding": 68.1},
      {"binder": "B5", "Ratio hCT/hAmylin binding": 91.4}
    ]},
    {"molecular_target": "T2, human calcitonin receptor", "test": "SPA competition with 125I-calcitonin on membranes of BHK cells with human calcitonin receptor (Assay VII)", "procedure,_shortened": "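BHK hCTR membranes 35 ng/μL + SPA beads 0.05 mg/well; buffer 50 mM Hepes pH 7.4, 1 mM CaCl2, 5 mM MgCl₂, 0.1% OA, 0.02% Tween20. 120 min, 25° C., shaking. Scintillation count; IC50 by one-site binding competition.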", "units": {"IC50": "nM"}, "values": [
      {"binder": "B1", "IC50": 36.5},
      {"binder": "B2", "IC50": 17.2},
      {"binder": "B3", "IC50": 88.9},
      {"binder": "B4", "IC50": 19.8},
      {"binder": "B5", "IC50": 60.9}
    ]}
  ]
}
